B1: Splicing factor 3B subunit 1 (Homo sapiens), O75533 (parent)
chain: MAKIAKTHEDIEAQIREIQGKKAALDEAQGVGLDSTGYYDQEIYGGSDSRFAGYVTSIAATELEDDDDDYSSSTSLLGQKKPGYHAPVALLNDIPQSTEQYDPFAEHRPPKIADREDEYKKHRRTMIISPERLDPFADGGKTPDPKMNARTYMDVMREQHLTKEEREIRQQLAEKAKAGELKVVNGAAASQPPSKRKRRWDQTADQTPGATPKKLSSWDQAETPGHTPSLRWDETPGRAKGSETPGATPGSKIWDPTPSHTPAGAATPGRGDTPGHATPGHGGATSSARKNRWDETPKTERDTPGHGSGWAETPRTDRGGDSIGETPTPGASKRKSRWDETPASQMGGSTPVLTPGKTPIGTPAMNMATPTPGHIMSMTPEQLQAWRWEREIDERNRPLSDEELDAMFPEGYKVLPPPAGYVPIRTPARKLTATPTPLGGMTGFHMQTEDRTMKSVNDQPSGNLPFLKPDDIQYFDKLLVDVDESTLSPEEQKERKIMKLLLKIKNGTPPMRKAALRQITDKAREFGAGPLFNQILPLLMSPTLEDQERHLLVKVIDRILYKLDDLVRPYVHKILVVIEPLLIDEDYYARVEGREIISNLAKAAGLATMISTMRPDIDNMDEYVRNTTARAFAVVASALGIPSLLPFLKAVCKSKKSWQARHTGIKIVQQIAILMGCAILPHLRSLVEIIEHGLVDEQQKVRTISALAIAALAEAATPYGIESFDSVLKPLWKGIRQHRGKGLAAFLKAIGYLIPLMDAEYANYYTREVMLILIREFQSPDEEMKKIVLKVVKQCCGTDGVEANYIKTEILPPFFKHFWQHRMALDRRNYRQLVDTTVELANKVGAAEIISRIVDDLKDEAEQYRKMVMETIEKIMGNLGAADIDHKLEEQLIDGILYAFQEQTTEDSVMLNGFGTVVNALGKRVKPYLPQICGTVLWRLNNKSAKVRQQAADLISRTAVVMKTCQEEKLMGHLGVVLYEYLGEEYPEVLGSILGALKAIVNVIGMHKMTPPIKDLLPRLTPILKNRHEKVQENCIDLVGRIADRGAEYVSAREWMRICFELLELLKAHKKAIRRATVNTFGYIAKAIGPHDVLATLLNNLKVQERQNRVCTTVAIAIVAETCSPFTVLPALMNEYRVPELNVQNGVLKSLSFLFEYIGEMGKDYIYAVTPLLEDALMDRDLVHRQTASAVVQHMSLGVYGFGCEDSLNHLLNYVWPNVFETSPHVIQAVMGALEGLRVAIGPCRMLQYCLQGLFHPARKVRDVYWKIYNSIYIGSQDALIAHYPRIYNDDKNTYIRYELDYIL
partner: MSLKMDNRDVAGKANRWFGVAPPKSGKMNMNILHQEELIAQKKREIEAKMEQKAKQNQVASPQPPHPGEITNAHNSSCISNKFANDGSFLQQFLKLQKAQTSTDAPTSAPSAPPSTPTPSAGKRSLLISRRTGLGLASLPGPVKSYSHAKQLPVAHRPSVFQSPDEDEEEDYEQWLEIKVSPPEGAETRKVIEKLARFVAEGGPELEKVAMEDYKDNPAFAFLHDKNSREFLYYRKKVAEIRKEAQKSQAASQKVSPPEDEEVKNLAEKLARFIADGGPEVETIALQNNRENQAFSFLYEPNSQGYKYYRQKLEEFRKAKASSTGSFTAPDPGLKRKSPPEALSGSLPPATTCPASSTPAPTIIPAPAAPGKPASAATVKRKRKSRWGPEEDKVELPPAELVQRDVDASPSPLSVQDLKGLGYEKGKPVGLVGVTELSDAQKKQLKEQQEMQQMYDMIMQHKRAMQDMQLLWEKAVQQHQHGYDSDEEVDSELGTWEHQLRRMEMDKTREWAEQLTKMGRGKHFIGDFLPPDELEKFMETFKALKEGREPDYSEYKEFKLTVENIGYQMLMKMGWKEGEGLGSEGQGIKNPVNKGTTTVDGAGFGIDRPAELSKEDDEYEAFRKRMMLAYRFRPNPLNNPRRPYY
B2: SURP and G-patch domain-containing protein 1 (Homo sapiens), Q8IWZ8 (parent)
chain: B1 partner

The results in this text go back to IntAct's records for PubMed 31474574.

In one experiment the parent is B1. The following applies: with sugp1_human SUGP1, Q8IWZ8.
As to K700E, the “effect of a mutation on the interaction” value is given as “decreasing interaction strength”.

The next experiment covers variants of B1. The following applies: with sugp1_human SUGP1, Q8IWZ8. This is another data set of the same source.
Consider K700E, for which the “effect of a mutation on the interaction” value is reported as “disrupting interaction strength”.

As to R625C, the “effect of a mutation on the interaction” value is “disrupting interaction strength”.

Turning to H662Q, the “effect of a mutation on the interaction” value is given as “disrupting interaction strength”.

For the variant E622D, the “effect of a mutation on the interaction” value is reported as “disrupting interaction strength”.

As to K666N, the “effect of a mutation on the interaction” value was “decreasing interaction strength”.

Variants of B2 are the subject of a further experiment. As to conditions: with U2AF2, P26368.
U2AF2, P26368, sequence (P26368 whole entry): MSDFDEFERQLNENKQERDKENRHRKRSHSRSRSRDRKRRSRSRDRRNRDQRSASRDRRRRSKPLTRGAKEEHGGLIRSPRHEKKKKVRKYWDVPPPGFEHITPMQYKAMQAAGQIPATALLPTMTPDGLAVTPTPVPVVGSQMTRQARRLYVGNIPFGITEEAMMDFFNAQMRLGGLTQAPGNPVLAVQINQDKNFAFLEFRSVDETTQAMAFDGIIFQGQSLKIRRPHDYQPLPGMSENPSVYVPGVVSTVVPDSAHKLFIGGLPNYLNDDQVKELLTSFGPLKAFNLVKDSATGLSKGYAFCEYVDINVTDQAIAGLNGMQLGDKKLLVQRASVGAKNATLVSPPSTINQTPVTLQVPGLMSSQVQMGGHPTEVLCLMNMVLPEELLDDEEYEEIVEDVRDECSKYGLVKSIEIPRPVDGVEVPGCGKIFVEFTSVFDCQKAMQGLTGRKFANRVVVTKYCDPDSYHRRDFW
With W387A, the “effect of a mutation on the interaction” value is “disrupting interaction strength”.
